Measured values as given in article PMC10728118, “Mutant GGGGCC RNA prevents YY1 from binding to Fuzzy promoter which stimulates Wnt/β-catenin pathway in C9ALS/FTD”.

Assays:
[1] = molecular target: His-YY1 ZF1+ZF2+ZF3 del382-end (UniProt P25490); test: EMSA; conditions: EMSA: 10 mM HEPES-KOH, 12 mM Tris-HCl, 50 mM NaCl, 50 mM KCl, 5 mM MgCl2, 100 uM ZnCl2, 0.01% NP-40, 5% glycerol, 2.5 mM DTT, pH 7.4, 25 C, 2.5 nM probe; FP: …
[2] = molecular target: His-YY1 ZF1+ZF2 del352-end (UniProt P25490); test: EMSA; conditions: EMSA: 10 mM HEPES-KOH, 12 mM Tris-HCl, 50 mM NaCl, 50 mM KCl, 5 mM MgCl2, 100 uM ZnCl2, 0.01% NP-40, 5% glycerol, 2.5 mM DTT, pH 7.4, 25 C, 2.5 nM probe; FP: …
His-YY1 full-length [3] = molecular target: T1, His-YY1 full-length (UniProt P25490 1-414); test: fluorescence polarisation; EMSA: 10 mM HEPES-KOH, 12 mM Tris-HCl, 50 mM NaCl, 50 mM KCl, 5 mM MgCl2, 100 uM ZnCl2, 0.01% NP-40, 5% glycerol, 2.5 mM DTT, pH 7.4, 25 C, 2.5 nM probe; FP: 50 mM Tris-HCl, 100 mM KCl, 2.5 mM MgCl2, 100 uM ZnCl2, pH 7.4, 25 C; conditions: protein: recombinant; tags: His; label: FAM
His-YY1 full-length [4] = molecular target: T1, His-YY1 full-length; test: EMSA; EMSA: 10 mM HEPES-KOH, 12 mM Tris-HCl, 50 mM NaCl, 50 mM KCl, 5 mM MgCl2, 100 uM ZnCl2, 0.01% NP-40, 5% glycerol, 2.5 mM DTT, pH 7.4, 25 C, 2.5 nM probe; FP: 50 mM Tris-HCl, 100 mM KCl, 2.5 mM MgCl2, 100 uM ZnCl2, pH 7.4, 25 C; conditions: protein: recombinant, tags: His, label: Cy5

T1 sequence (P25490 whole entry): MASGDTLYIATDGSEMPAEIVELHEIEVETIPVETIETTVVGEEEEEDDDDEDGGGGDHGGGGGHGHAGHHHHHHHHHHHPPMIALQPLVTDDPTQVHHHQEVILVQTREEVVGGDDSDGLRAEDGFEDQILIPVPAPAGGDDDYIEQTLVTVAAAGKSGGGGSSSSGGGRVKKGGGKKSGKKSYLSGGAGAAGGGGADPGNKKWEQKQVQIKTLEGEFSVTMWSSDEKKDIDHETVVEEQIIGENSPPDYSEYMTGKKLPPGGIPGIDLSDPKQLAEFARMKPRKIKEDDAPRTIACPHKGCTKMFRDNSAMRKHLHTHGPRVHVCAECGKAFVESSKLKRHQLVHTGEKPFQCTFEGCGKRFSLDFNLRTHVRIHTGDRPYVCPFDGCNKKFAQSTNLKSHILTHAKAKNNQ
Chain of His-YY1 ZF1+ZF2 del352-end (P25490 1-351): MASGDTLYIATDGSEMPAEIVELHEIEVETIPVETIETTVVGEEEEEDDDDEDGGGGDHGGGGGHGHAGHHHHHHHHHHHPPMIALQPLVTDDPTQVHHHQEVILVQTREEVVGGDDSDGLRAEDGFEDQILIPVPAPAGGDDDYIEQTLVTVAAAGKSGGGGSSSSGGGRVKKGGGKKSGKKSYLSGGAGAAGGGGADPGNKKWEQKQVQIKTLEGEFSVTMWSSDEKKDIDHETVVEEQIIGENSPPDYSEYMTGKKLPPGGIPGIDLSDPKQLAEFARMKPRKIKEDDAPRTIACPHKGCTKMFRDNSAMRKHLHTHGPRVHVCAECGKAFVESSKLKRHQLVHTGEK
Chain of His-YY1 ZF1+ZF2+ZF3 del382-end (P25490 1-381): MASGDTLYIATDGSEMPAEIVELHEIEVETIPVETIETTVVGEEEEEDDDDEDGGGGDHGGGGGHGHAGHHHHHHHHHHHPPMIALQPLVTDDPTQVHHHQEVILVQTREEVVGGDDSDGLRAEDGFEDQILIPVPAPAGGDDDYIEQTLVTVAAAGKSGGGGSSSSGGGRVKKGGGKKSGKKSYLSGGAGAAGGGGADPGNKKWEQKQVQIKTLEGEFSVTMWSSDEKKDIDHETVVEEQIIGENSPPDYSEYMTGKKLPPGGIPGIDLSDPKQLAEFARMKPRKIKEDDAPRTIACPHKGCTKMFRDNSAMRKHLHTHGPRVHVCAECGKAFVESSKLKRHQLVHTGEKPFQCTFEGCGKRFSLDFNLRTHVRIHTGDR

Molecule “GGGGCCGGGGCCGGGGCCGGGGCCGGGGCCGGGGCCGGGGCCGGGGCC [(GGGGCC)8 RNA]” has a Kd [1] of 59 nM and a Kd [2] of 129 nM.

CGGGGCCGGGGCCGGGGCCGGGGCCGGGGCCGGGGCCGGGGCCGGGGCCG (ssRNA) [FAM-(GGGGCC)8 RNA] gave a Kd (His-YY1 full-length [3]) of 45.3 ± 3.67 nM.

B1: FuzzyYY1-b DNA (dsDNA)
DNA 1: AGTCCTAAATGGGGGAGGAG
DNA 2: CTCCTCCCCCATTTAGGACT
B1 was tested, and the Kd (His-YY1 full-length [4]; blunt) was 405 ± 45.9 nM.

B2: FuzzyYY1-a DNA (dsDNA)
DNA 1: TGGGCAACATGGCGACACCC
DNA 2: GGGTGTCGCCATGTTGCCCA
Molecule B2 has a Kd (His-YY1 full-length [4]; blunt) of 242 ± 21.7 nM.

B3: PP7 RNA (ssRNA)
RNA: UAAAGUAAGAUAAGGCAAGACAAGGUAAAACGGAACAGAACCGAAGGGAAGAGAAGCAAAGCGAAAGGAAAUAAACAAAAGAAAAAUUCGUAGAAUUCCG
B3: binds (His-YY1 full-length [4]).

B4: AAV P5 DNA (dsDNA)
DNA 1: AGGGTCTCCATTTTGAAGCG
DNA 2: CGCTTCAAAATGGAGACCCT
B4: binds (His-YY1 full-length [4]; blunt).

Work on GGGCGCGGCGCGCGGGCCGGGGCGGGCGCGCGGGCGGGGCGCGGCGCG (ssRNA) [randomised GC-rich RNA] yielded a Kd (His-YY1 full-length [4]) of 201 ± 17.9 nM.

GGGGCCGGGGCCGGGGCCGGGGCCGGGGCCGGGGCCGGGGCCGGGGCC (ssRNA) [(GGGGCC)8 RNA] showed a Kd (His-YY1 full-length [4]) of 46.8 ± 3.42 nM.
